Reference: patent publication US20150352233A1

Molecular target: Membrane Preparation Recombinant Human GLP-1 (GLP-1R) (human) (UniProt P43220)

non-labeled exendin4 (peptide; other documents disagree on this pair)
IC50: 0.19 nM
